# In PMC3773880:
# Molecular target: Rgps of P. gingivalis HG66 (all gingipain activity released in soluble, non-glycosylated form into media)
binder,measurement,value
"PD_(RgpB), recombinant N-terminal prodomain of RgpB, P95493 25-229 (domain or fragment) GPLGSQPAERGRNPQVRLLSAEQSMSKVQFRMDNLQFTGVQTSKGVAQVPTFTEGVNISEKGTPILPILSRSLAVSETRAMKVEVVSSKFIEKKDVLIAPSKGVISRAENPDQIPYVYGQSYNEDKFFPGEIATLSDPFILRDVRGQVVNFAPLQYNPVTKTLRIYTEIVVAVSETAEAGQNTISLVKNSTFTGFEDIYKSVFMNYEATR",IC50 of inhibition of Rgp activity (L-BAPNA): HG66 (cell-free culture medium),12 nM
same,IC50 of inhibition of Rgp activity (L-BAPNA): HG66 (whole culture),116 nM
